Consider five molecules from patent publication US20230080534A1 (SHANGHAI BIOTROY BIOTECHNIQUE, published 2023).

Numbering of substitutions follows the chain as printed. No end group written: not given here.

The labels stand for the following.
T1: human SEMG2 full-length protein (human, UniProt Q02383 24-582, limits assumed)
T1 construct: also called SEMG2 protein; semenogelin 2
T1 sequence: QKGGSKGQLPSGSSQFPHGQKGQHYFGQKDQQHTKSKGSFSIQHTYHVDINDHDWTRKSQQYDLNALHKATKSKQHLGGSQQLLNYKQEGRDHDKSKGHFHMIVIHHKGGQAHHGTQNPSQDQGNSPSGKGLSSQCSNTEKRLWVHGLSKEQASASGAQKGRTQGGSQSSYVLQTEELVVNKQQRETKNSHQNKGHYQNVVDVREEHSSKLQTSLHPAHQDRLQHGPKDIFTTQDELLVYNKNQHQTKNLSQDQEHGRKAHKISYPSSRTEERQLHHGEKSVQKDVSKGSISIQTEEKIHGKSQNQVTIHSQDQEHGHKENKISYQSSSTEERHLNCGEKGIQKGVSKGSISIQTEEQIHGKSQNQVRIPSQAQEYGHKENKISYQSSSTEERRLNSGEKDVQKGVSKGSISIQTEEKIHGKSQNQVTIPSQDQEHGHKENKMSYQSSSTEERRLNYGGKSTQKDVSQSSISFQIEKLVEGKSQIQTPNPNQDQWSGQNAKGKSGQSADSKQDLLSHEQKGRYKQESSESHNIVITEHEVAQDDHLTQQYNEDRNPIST

T2: BSA-conjugated human SEMG2 (497-509) polypeptide (human, also: coupled to BSA, site not given here)
T2 peptide: QIEKLVEGKSQIQ

B1: MM15 (antibody, IgG2a, V domains shown)
VH: QVQLKESGPGLVAPSQSLSITCTVSGFSLTRYGVSWVRQTPGKGLEWLGIIWGDGSTNYHSALISRLSISKDNSKSQVFLKLNSLQTDDTATYYCAKQERFSDGYYDGFAYWGQGTLVTVSA
VL: QIVLTQSPAIMSASPGEKVTITCSASSSVSYMHWFQQKPGTSPKLWIYSTSNLASGVPARFSGSGSGTSYSLTISRMEAEDAATYYCQQRSSYPFTFGSGTKLEIKR
B2: 67-3-67-3 (antibody, V domains shown)
VH: QVQLLESGGGVVQPGRSLRLSCAASGFTFSSYAMHWVRQASGKGLEWVAVISYDGSNKYYADSVKGRFTISRDNSKNTLYLQMNSLRAEDTAVYYCARMDNHGSPDYWGQGTLVTVSS
VL: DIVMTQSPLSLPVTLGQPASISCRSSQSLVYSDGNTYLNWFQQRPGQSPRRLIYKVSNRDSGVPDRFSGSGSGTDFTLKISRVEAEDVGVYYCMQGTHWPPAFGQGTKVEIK
B3: 67-3-67-5 (antibody, V domains shown)
VH: B2 VH
VL: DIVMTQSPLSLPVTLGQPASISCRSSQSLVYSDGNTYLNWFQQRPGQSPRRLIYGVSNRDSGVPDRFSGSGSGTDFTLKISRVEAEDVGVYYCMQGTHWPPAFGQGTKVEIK
B4: 67-3-67-4 (antibody, V domains shown)
VH: B2 VH
VL: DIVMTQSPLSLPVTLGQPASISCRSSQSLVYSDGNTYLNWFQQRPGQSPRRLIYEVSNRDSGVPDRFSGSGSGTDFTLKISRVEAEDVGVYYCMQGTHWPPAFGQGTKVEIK
B5: 67-9-67-3 (antibody, V domains shown)
VH: B2 VH with N101S, H102G
VL: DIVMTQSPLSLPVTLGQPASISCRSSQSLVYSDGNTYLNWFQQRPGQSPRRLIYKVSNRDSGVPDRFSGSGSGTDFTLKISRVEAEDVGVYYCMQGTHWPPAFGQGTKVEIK

One assay addresses T1, human SEMG2 full-length protein. Description: ELISA, plate coated with SEMG2 protein, anti-mouse secondary antibody; the EC50 table prints no unit, the axis is log (antibody concentration, nM).
B1: it took 0.444 nM to reach a half-maximal effect (EC50).

For another assay, the target named is T2, BSA-conjugated human SEMG2 (497-509) …. Description: ELISA (FIG. 21B-D).
With B2, the “fold higher affinity than the parent antibody (H88-67)” value is over 10 fold.

In the case of B3, the “fold higher affinity than the parent antibody (H88-67)” value was over 10 fold.

Take B4: the “fold higher affinity than the parent antibody (H88-67)” value was over 10 fold.

Consider B5, for which the “fold higher affinity than the parent antibody (H88-67)” value is over 10 fold.

A further assay addresses T1, human SEMG2 full-length protein. Description: ELISA (FIG. 21B-D).
As for B2, the “fold higher affinity than the parent antibody (H88-67)” value is over 10 fold.

Consider B3, for which the “fold higher affinity than the parent antibody (H88-67)” value is over 10 fold.

Consider B4, for which the “fold higher affinity than the parent antibody (H88-67)” value was over 10 fold.

On to B5, for which the “fold higher affinity than the parent antibody (H88-67)” value is over 10 fold.

The next assay has the same target. Description: ELISA on SEMG2; the EC50 table prints no unit, the axis is log (antibody concentration, nM).
B2 had an EC50 of 0.614 nM. In other words, the sub-nanomolar range.

B3 had an EC50 of 0.68 nM. This EC50 and that of the molecule before are within 1.5-fold of each other.

B4 came in with a concentration giving a half-maximal response (EC50) of 0.537 nM.

In the case of B5, the EC50 worked out at 0.272 nM.
